Test results published in PMC9844003 (2023).

Tests used:
[1] = target: T1, extracellular domain of CD47 fused to a His(×6)-Avi-tag (human); assay: SPR; pH 7.4
[2] = target: T1, extracellular domain of CD47 fused to a …; assay: ELISA; pH 6.6
[3] = target: T1, extracellular domain of CD47 fused to a …; assay: ELISA; pH 7.2
[4] = target: T1, extracellular domain of CD47 fused to a …; assay: ELISA; pH 6.2
[5] = target: T2, cell-surface CD47 on Raji, Jurkat and MDA-231 tumor cells (human (endogenous in Raji, Jurkat, …, UniProt Q08722 19-323)); assay: FACS; MDA-231, pH 6.8, competition with bio-SIRPα-Fc
T2 sequence (Q08722 19-323): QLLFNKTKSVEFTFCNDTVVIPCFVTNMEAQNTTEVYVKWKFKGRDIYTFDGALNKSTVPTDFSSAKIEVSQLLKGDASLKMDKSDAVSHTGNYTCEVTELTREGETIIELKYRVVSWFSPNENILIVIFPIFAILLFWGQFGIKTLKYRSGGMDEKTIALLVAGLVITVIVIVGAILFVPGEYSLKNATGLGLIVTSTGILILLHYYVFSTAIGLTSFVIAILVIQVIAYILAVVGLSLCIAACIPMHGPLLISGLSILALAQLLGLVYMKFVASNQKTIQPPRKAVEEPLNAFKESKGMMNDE

[6] = target: T2, cell-surface CD47 on Raji, Jurkat and …; assay: FACS; Raji, pH 6.8, competition with bio-SIRPα-Fc
[7] = target: T2, cell-surface CD47 on Raji, Jurkat and …; assay: FACS; Jurkat, pH 7.4, competition with bio-SIRPα-Fc
[8] = target: T1, extracellular domain of CD47 fused to a …; assay: ELISA; pH 6.8
[9] = target: T3, full-length human CD47 stably expressed on CHO cells (CHO-hCD47) (human, UniProt Q08722 19-323); assay: FACS; pH 7.4, competition with bio-SIRPα-Fc
T3 sequence (Q08722 19-323): as above

[10] = target: T2, cell-surface CD47 on Raji, Jurkat and …; assay: FACS; MDA-231, pH 7.4, competition with bio-SIRPα-Fc
[11] = target: T2, cell-surface CD47 on Raji, Jurkat and …; assay: FACS; Raji, pH 6.8
[12] = target: T2, cell-surface CD47 on Raji, Jurkat and …; assay: FACS; MDA-231, pH 7.4
[13] = target: T3, full-length human CD47 stably expressed …; assay: FACS; pH 6.8, competition with bio-SIRPα-Fc
[14] = target: T2, cell-surface CD47 on Raji, Jurkat and …; assay: FACS; Raji, pH 7.4
[15] = target: T1, extracellular domain of CD47 fused to a …; assay: ELISA; pH 7.0
[16] = target: T2, cell-surface CD47 on Raji, Jurkat and …; assay: FACS; Raji, pH 7.4, competition with bio-SIRPα-Fc
[17] = target: T1, extracellular domain of CD47 fused to a …; assay: ELISA; pH 7.6
[18] = target: T2, cell-surface CD47 on Raji, Jurkat and …; assay: FACS; MDA-231, pH 6.8
[19] = target: T2, cell-surface CD47 on Raji, Jurkat and …; assay: FACS; Jurkat, pH 6.8
[20] = target: T3, full-length human CD47 stably expressed …; assay: FACS; pH 7.4
[21] = target: T2, cell-surface CD47 on Raji, Jurkat and …; assay: FACS; Jurkat, pH 7.4
[22] = target: T3, full-length human CD47 stably expressed …; assay: FACS; pH 6.8
[23] = target: T1, extracellular domain of CD47 fused to a …; assay: SPR; pH 6.8
[24] = target: T1, extracellular domain of CD47 fused to a …; assay: ELISA; pH 6.4
[25] = target: T1, extracellular domain of CD47 fused to a …; assay: ELISA; pH 7.4
[26] = target: T2, cell-surface CD47 on Raji, Jurkat and …; assay: FACS; Jurkat, pH 6.8, competition with bio-SIRPα-Fc

T1 sequence (chain, as listed by the source): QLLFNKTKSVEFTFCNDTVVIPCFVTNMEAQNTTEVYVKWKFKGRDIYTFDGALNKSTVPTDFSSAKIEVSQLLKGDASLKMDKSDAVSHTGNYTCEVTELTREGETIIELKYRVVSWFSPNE

Row | Kd [1] [nM] | EC50 [3] [nM] | IC50 [5] [nM] | IC50 [6] [nM] | IC50 [9] [nM] | IC50 [10] [nM] | EC50 [11] [nM] | EC50 [12] [nM] | IC50 [13] [nM] | EC50 [14] [nM] | EC50 [15] [nM] | EC50 [18] [nM] | EC50 [19] [nM] | EC50 [20] [nM] | EC50 [21] [nM] | EC50 [22] [nM] | EC50 [25] [nM] | IC50 [26] [nM] | Binder | further results
1 | 6.9 | 0.04 | 1.7 | 1.2 | 5.9 | 9.3 | 0.7 | 3.3 | 4.1 | 4 | 0.04 | 1.2 | 1.5 | 4.1 | 2 | 4.8 | 0.04 | 4.2 | BC31M5 (hIgG1 form) (antibody, V domains shown) VH: QVQLVQSGAEVKKPGASVKVSCKASGYTFTSYGISWVRQAPGQGLEWMGWISAYNGNTNYAQKLQGRVTMTTDTSTSTAYMELRSLRSDDTAVYYCARGTVYFDYWGQGTLVTVSS VL: EIVLTQSPATLSLSPGERATLSCRASQSLSRNHLAWYQQKPGQPPRLLIHWASTRESGVPDRFSGSGSGTDFTLTISSLQAEDVAVYYCQQHTQNTWTFGQGTKVEIK | EC50 [2]: 0.05 nM; EC50 [4]: 0.06 nM; IC50 [7]: 17.2 nM; EC50 [8]: 0.04 nM; IC50 [16]: 6.7 nM; EC50 [17]: 0.06 nM; Kd [23]: 3.6 nM; EC50 [24]: 0.05 nM
2 | 1170 | – | – | – | – | – | – | – | – | – | – | – | – | – | – | – | – | – | BC27 (hIgG1 form) (antibody, V domains shown) VH: QVQLVQSGAEVKKPGASVKVSCKASGYTFTSYGISWVRQAPGQGLEWMGWISAYNGNTNYAQKLQGRVTMTTDTSTSTAYMELRSLRSDDTAVYYCARGKVYFDYWGQGTLVTVSS VL: EIVLTQSPATLSLSPGERATLSCRASQSLSRNHLAWYQQKPGQPPRLLIHWASTRESGVPDRFSGSGSGTDFTLTISSLQAEDVAVYYCQQYYTASWTFGQGTKVEIK | –
3 | 457 | 0.11 | 22.7 | 19.9 | ~30.4 | ~507 | 6.8 | ~231 | 5.4 | ~92 | 0.04 | 8.5 | 1.54 | ~21.4 | ~131 | 4.8 | 0.51 | 35 | BC31M4 (hIgG1 form) (antibody, V domains shown) VH: QVQLVQSGAEVKKPGASVKVSCKASGYTFTSYGISWVRQAPGQGLEWMGWISAYNGNTNYAQKLQGRVTMTTDTSTSTAYMELRSLRSDDTAVYYCARGAVYFDYWGQGTLVTVSS VL: EIVLTQSPATLSLSPGERATLSCRASQSLSRNHLAWYQQKPGQPPRLLIHWASTRESGVPDRFSGSGSGTDFTLTISSLQAEDVAVYYCQQHTQNTWTFGQGTKVEIK | –
